B1: Catenin beta-1 (Mus musculus), Q02248 (parent)
chain: MATQADLMELDMAMEPDRKAAVSHWQQQSYLDSGIHSGATTTAPSLSGKGNPEEEDVDTSQVLYEWEQGFSQSFTQEQVADIDGQYAMTRAQRVRAAMFPETLDEGMQIPSTQFDAAHPTNVQRLAEPSQMLKHAVVNLINYQDDAELATRAIPELTKLLNDEDQVVVNKAAVMVHQLSKKEASRHAIMRSPQMVSAIVRTMQNTNDVETARCTAGTLHNLSHHREGLLAIFKSGGIPALVKMLGSPVDSVLFYAITTLHNLLLHQEGAKMAVRLAGGLQKMVALLNKTNVKFLAITTDCLQILAYGNQESKLIILASGGPQALVNIMRTYTYEKLLWTTSRVLKVLSVCSSNKPAIVEAGGMQALGLHLTDPSQRLVQNCLWTLRNLSDAATKQEGMEGLLGTLVQLLGSDDINVVTCAAGILSNLTCNNYKNKMMVCQVGGIEALVRTVLRAGDREDITEPAICALRHLTSRHQEAEMAQNAVRLHYGLPVVVKLLHPPSHWPLIKATVGLIRNLALCPANHAPLREQGAIPRLVQLLVRAHQDTQRRTSMGGTQQQFVEGVRMEEIVEGCTGALHILARDVHNRIVIRGLNTIPLFVQLLYSPIENIQRVAAGVLCELAQDKEAAEAIEAEGATAPLTELLHSRNEGVATYAAAVLFRMSEDKPQDYKKRLSVELTSSLFRTEPMAWNETADLGLDIGAQGEALGYRQDDPSYRSFHSGGYGQDALGMDPMMEHEMGGHHPGADYPVDGLPDLGHAQDLMDGLPPGDSNQLAWFDTDL
partner: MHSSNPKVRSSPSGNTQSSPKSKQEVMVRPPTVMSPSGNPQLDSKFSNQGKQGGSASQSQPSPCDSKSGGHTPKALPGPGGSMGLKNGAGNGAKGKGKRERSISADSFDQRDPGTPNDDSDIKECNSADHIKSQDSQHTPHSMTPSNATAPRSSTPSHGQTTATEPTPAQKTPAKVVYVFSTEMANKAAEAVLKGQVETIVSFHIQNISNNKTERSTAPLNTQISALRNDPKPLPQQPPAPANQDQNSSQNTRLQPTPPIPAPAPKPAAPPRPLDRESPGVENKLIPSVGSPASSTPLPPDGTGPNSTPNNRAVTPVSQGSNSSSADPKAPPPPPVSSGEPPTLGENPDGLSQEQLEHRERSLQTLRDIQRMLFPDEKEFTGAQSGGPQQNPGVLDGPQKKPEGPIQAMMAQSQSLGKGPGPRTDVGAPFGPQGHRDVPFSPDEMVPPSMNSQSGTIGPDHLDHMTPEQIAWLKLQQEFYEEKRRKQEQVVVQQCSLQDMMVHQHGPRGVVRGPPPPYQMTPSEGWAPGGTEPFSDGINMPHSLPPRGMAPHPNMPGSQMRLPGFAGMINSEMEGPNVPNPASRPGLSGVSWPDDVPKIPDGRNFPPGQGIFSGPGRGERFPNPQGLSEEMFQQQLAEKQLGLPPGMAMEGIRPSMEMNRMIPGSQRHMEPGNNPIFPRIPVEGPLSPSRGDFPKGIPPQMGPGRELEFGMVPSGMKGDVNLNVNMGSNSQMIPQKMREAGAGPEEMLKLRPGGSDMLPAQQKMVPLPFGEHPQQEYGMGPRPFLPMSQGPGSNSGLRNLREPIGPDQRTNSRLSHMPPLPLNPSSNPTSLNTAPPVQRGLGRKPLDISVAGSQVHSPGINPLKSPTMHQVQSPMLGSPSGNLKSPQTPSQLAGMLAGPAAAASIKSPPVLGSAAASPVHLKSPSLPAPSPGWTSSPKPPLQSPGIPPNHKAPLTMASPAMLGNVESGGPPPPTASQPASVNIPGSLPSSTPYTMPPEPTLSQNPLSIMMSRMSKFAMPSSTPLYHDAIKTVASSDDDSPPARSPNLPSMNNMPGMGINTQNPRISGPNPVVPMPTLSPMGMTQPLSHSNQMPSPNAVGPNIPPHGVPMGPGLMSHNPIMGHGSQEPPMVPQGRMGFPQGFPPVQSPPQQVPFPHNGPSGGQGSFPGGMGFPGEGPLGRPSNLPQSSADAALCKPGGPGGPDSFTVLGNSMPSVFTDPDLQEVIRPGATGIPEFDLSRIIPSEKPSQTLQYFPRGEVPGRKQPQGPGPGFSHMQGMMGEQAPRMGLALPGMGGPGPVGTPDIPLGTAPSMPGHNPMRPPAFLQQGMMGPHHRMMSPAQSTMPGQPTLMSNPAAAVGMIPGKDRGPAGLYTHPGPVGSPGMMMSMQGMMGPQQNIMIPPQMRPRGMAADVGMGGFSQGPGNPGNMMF
B2: Catenin beta-1 (Mus musculus), Q02248 (parent)
chain: B1 chain
partner: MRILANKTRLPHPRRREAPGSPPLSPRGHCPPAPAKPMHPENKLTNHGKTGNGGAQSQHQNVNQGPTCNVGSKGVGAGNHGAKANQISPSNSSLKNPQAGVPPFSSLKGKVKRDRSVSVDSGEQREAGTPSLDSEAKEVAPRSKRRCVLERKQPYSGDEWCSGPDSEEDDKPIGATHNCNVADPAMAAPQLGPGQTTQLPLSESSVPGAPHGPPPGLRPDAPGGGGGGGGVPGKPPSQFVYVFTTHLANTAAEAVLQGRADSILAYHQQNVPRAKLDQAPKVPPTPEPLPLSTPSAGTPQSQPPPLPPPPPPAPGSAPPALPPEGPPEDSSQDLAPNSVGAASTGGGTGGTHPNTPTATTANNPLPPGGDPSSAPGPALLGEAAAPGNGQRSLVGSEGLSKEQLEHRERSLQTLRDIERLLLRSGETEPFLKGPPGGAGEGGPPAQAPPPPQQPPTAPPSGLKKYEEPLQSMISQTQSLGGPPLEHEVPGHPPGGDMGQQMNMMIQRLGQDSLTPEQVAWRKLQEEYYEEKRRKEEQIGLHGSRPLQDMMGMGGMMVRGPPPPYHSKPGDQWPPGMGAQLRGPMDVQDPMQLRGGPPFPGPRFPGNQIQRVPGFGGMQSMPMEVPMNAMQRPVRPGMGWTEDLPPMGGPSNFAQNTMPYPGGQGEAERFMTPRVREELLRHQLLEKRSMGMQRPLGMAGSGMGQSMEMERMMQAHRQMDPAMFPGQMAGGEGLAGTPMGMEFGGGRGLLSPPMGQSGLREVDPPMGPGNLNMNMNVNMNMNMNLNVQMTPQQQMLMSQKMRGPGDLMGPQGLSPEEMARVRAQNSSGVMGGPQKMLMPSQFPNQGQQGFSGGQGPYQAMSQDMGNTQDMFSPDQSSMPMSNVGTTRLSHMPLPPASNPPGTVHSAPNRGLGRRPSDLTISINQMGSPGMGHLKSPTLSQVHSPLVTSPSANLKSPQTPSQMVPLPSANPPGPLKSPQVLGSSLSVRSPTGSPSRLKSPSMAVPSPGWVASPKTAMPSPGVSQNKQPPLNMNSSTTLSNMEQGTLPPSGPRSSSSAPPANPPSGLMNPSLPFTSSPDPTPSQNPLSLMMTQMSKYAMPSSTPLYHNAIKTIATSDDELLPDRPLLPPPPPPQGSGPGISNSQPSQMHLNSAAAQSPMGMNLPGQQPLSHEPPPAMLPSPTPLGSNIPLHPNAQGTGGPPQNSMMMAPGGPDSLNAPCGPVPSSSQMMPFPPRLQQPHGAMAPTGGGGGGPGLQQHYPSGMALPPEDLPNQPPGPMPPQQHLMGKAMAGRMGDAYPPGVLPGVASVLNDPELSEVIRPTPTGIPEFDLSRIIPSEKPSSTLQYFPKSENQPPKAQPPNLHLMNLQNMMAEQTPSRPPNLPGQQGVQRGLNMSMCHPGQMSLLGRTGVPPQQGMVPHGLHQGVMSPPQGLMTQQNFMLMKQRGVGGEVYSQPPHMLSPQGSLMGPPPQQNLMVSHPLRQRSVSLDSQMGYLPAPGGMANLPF

Variants of: B1
Details: with bcl9_human BCL9, O00512

Variant | effect of a mutation on the interaction
D164A | disrupting interaction

Variants of: B2
Details: with bcl9l_human BCL9L

Variant | effect of a mutation on the interaction
D164A | disrupting interaction

Reference: IntAct's records for PubMed 17113272
